Blank lines part the entries; values can stand above or below the binder they belong to.
Assays:
[1] = biological target: T1, native amyloid plaques in unfixed brain sections of Tg2576 APP transgenic mice (human, UniProt P05067 672-713, limits assumed); assay: immunohistochemistry on unfixed Tg2576 mouse brain sections
T1 construct: Tissue deposits of Aβ in situ; also called amyloid plaques (Tg2576 mouse brain); amyloid deposits

human Aβ40 monomer = biological target: T2, human Aβ40 monomer (human, UniProt P05067 672-711); assay: BIAcore, antibody captured on protein G or anti-mouse Fc, Aβ monomer injected
T2 construct: domain: Aβ40; Monomeric form
Protocol: (§1) Preparation of BIacore Chip Surfaces: Immobilization of Proteins to a Biacore sensor chip (CM5) was performed according to manufacturer's instructions. Briefly, carboxyl groups on the sensor chip surfaces were activated by injecting 60 μL of a mixture containing 0.2 M N-ethyl-N′-(dimethylaminopropyl)carbodiimide (EDC) and 0.05 M N-hydroxysuccinimide (NHS). Specific surfaces were obtained by injecting rProtein G (Pierce), goat anti-mouse Fc (Jackson Immuno Research Lab) or Aβ aggregates diluted in 10 mM acetate, pH 4.0 at concentrations between 5 and 20 μg/mL. Excess reactive groups on the surfaces were deactivated by injecting 60 μL of 1 M ethanolamine. Final immobilized levels were about 10000 resonance units (RU) for the Protein G and anti-mouse Fc surfaces, and 400 RU for the Aβ aggregates surfaces. A blank, mock-coupled reference surface was also prepared on the sensor chips for background subtraction.
(§2) Kinetic analysis of Aβ monomers binding to protein G captured antibodies: The kinetic analysis of the interaction between Aβ monomers and antibodies was performed as follows: 2.1A and mAb 2.1 were diluted in PBS+0.005% P-20+0.1 mg/mL BSA and injected over the immobilized protein G or anti-mouse Fc surfaces. Aβ monomers were diluted in PBS+0.005% P-20+0.1 mg/mL BSA from 1000 nM to 2 nM, and each concentration was injected over the captured antibody surfaces. After 3 minutes dissociation, each surface was regenerated by injection of 10 mM glycine, pH 1.5.

human Aβ42 monomer = biological target: T3, human Aβ42 monomer (human, UniProt P05067 672-713); assay: as above
T3 construct: domain: Aβ42; Monomeric form
Protocol: as §1, §2

[2] = biological target: T1, native amyloid plaques in unfixed brain …; assay: cell-based or functional assay
human Aβ40 fibrils = biological target: T4, human Aβ40 fibrils (human, UniProt P05067 672-711); assay: BIAcore, antibody injected over immobilized Aβ aggregates
T4 construct: domain: Aβ40; Aggregated (fibrillar) form; also called Fibrillar Aβ40; Aβ40 aggregate
Protocol: as §1
(§3) Kinetic analysis of antibodies binding to immobilized Aβ aggregates: Antibodies were diluted in PBS+0.005% P-20+0.1 mg/mL BSA from 100 nM to 0.2 nM. The samples at each concentration were injected over the immobilized Aβ aggregate surfaces, as well as over a blank surface for background subtraction. After a 15-minute dissociation, the surface was regenerated by injecting 8 mM glycine, pH 3.0, and 1 M NaCl for 30 seconds.

human Aβ42 fibrils = biological target: T5, human Aβ42 fibrils (human, UniProt P05067 672-713); assay: as above
T5 construct: domain: Aβ42; Aggregated (fibrillar) form; also called Fibrillar Aβ42; Aβ42 aggregate
Protocol: as §1, §3

T3 sequence (P05067 672-713 limits assumed): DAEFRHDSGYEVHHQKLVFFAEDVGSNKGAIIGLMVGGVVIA
T2 sequence (P05067 672-711 limits assumed): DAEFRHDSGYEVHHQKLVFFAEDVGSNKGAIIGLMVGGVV
T1 sequence (P05067 672-713 limits assumed): as the sequence (P05067 672-713 limits assumed) above
T5 sequence (P05067 672-713 limits assumed): as above
T4 sequence (P05067 672-711 limits assumed): as the sequence (P05067 672-711 limits assumed) above

binding result [1]: no binding (tested: 1 µg/ml)
B1: 2.1 N (antibody, human IgG1, kappa, V domains shown)
VH: QVTLKESGPALVKPTQTLTLTCTFSGFSLRTSGMGVGWIRQPPGKGLEWLAHIWWDDDKSYNPSLKSQLTISKDTSKNQVVLTMTNMDPVDTATYYCARRNYYYDDYFAYWGQGTTLTVSS
VL: DVVMTQSPLSLPVTLGQPASISCRSSQSIVHSNGNTYLEWFQQRPGQSPRRLIYKVSNRFSGVPDRFSGSGSGTDFTLKISRVEAEDVGVYYCFQGSHVPLTFGQGTKLEIKR
notes: Humanized IgG

Kd (human Aβ40 monomer): 42 nM
koff (human Aβ40 monomer): 0.0041 s⁻¹
kon (human Aβ40 monomer): 98000 M⁻¹ s⁻¹
Kd (human Aβ42 monomer): 17 nM
koff (human Aβ42 monomer): 0.00072 s⁻¹
kon (human Aβ42 monomer): 42000 M⁻¹ s⁻¹
EC50 of antibody induced phagocytosis of amyloid [2]: 0.4 µg/mL
koff (human Aβ40 fibrils): < 5e-05 s⁻¹
koff (human Aβ42 fibrils): < 5e-05 s⁻¹
B2: murine monoclonal anti-amyloid antibody 2.1 (antibody, mouse IgG1, kappa, V domains shown)
VH: QVTLKESGPGILKPSQTLSLTCSFSGFSLRTSGMGVGWIRQPSGKGLEWLAHIWWDDDKSYNPSLKSQLTISKDTSRNQVFLKITSVDTADTATYYCARRNYYYDDYFAYWGQGTTLTVSS
VL: DVLMTQTPLSLPVSLGDQASISCRSSQSIVHSNGNTYLEWYLQKPGQSPKLLIYKVSNRFSGVPDRFSGSGSGTDFTLKISRVEAEDLGVYYCFQGSHVPLTFGAGTKLELKR
notes: also called mAb 2.1; 2.1 murine
